Data reported in the DeepSol protein solubility set.

Assay: soluble on expression in E. coli; label from the status in PepcDB or PDB records

Sequence	soluble on expression in E. coli
MGSDKIHHHHHHMNWESTPVLMLTPFHHMQRGNTLTTLRLQTALRQRGFTVDLLSLEEKGWRDSLREYLINGKYSLVHGFNARYFGGVLTEFPELRNLPLILTTTGSDLNYDLKNSGRDLVLAAFAAAEKIIVFHDYFQKLIGDAYPEYCSKLSTIPQGVWLEESPPIKREMIGLAADNIVFALPSGLRPVKDIELAIDGLQRVYKDFPELRLLIIGPVIDRDYGQKIKQRVSELNWVFYLGEVLHSDMGNYLSLADVILNTSQAEGQPQGLLEGMSQNKPAILTAVPGNLDIIEEGRQGYYVRNQEELAVAARKMLSSAESRQRMGWEAGKLVKEKFSLAREIQSYAELYRQVLSP	not soluble
MGSDKIHHHHHHMKQQYTATVVMATYNGEKNILEQLDSLKNQSKKIDEVLIWDDCSTDSTVKIIENFISENKLGETWHLQINTENLGWRKNFFNLLNAATKEIVFTCDQDDIWDASKIEVMCEAFANTDVKVLVSDYTELVEPGGLAEELKKIDSVKLPNQKAEQIIFNENNLFLRRPGCVYAIRKSFIANVNLYASEMENPVHDMAMWGSSLLSDGLYIVREELIRWRKHGQSSFKKEIDLAKKQNHFEERLNTLRRRLQRTEAAKNYLNNQPHVEEFEYKDKVLSNLIKELNMRVSLLERKKIIPILCAFFKYHHKFYFSTDIYHIMKYKIRK	not soluble
MGSDKIHHHHHHMRNTDNGVIGSDQTAVMTRLALDELIDQLLHSNALSLKLTANPLVADRAWHLTENTCIRAFSADDPQAKKRAHHALFILYQSWLADPLSPAAANQFHPLLSGIRNYIESEWLRAESKRFHHQRPMLNAGNIVDELRALCQQHPASHHPLFDFLASEASAAQIDYFFKSDSALNLLFFDLVAMGLVGSLPETRAEIAQNLWDEIGQGSTEITHVNLYKDLLKRRNIALPDNHFAHLYEWQGLAGYNAFMLGGVNRQHYYKSLGVMAMTELLDPPQYEKLVAGCRRIGLSERDVHYYAEHITVDIGHADGWLNNVIVPIGKKHPAAMEEVFFGAALRLQTCNDYYDGLLAALQSLGGSLSSHSVPPSE	not soluble
AAWLQRKQFVSAGQEVAARLNTLGAELTQSRNDMREALALAQAQSGKVAELEGKVREAQSQYSALQQALQNLNDGASDEMLANDIERLITIASQQLRLAGNVSNAIVALETAQARLARADRPRFASLQQSINGDLDRLRAVGVVDIAAQSARIDRLVALVGRAPLLVPDAAAPGVTAVPQANEAVPASVDPGADLPADAAWWQRWQAEIASWPGRAGSALAHELGDLIRVQRVDQPTALLLSPEQAGQLRSTLRQRLLTAQLSMLMRQPAVWKSELDAVAATLAQYFDGKAPDTVAALALARELGQVEIAVRVPDVADSLNGIAALRAAGFNADG	not soluble
MGSDKIHHHHHHMMKIPKKIHQIYTKGIHDLPEEILVSVGKLKDLNPGWEYFFYDEKSIIGYIHKHYGKEMLNIYLSINPKYGVAKADLFRYLLIYIEGGVYLDIKSSCSIPLDQVIKDDCEILLCSWDNKECGCDRNMGIHKELGFLKCGEYQQWNIISASGSPYIKSAIDEVIHRLKTYKPWIYGVGMKGVLNTTGPVPFSVGIERINKTEFFHHEENYRNIGLKYRNVTEETIRKLNKNHYSKLKDSIVTLEGKDKLYYKLWLLFFYPLQRLKKNIINESKFVIRKMKRISRKTSQ	not soluble
MSLATNKKEIIRLLEEIATYMELKGENSFKISAFRKAAQAIELDSRSLSEIDDFTKISGIGKTTGEIIQRYLDSGECPELEELKKEVPAGLVPLLDVPGLGGKKLSRLYHELGVVDKDTLLQEAENGHIEALKGFGKKSAEKMAEAVREMGERPDRYPLNDVLPIIQKVEAYLAEIAPIETFAQAGSLRRLRETVKDLDYVIATEKPEDVQKALLAFPLITDVIGAGETKVSAVLEDNITISVDFRLVEKKAFATTLHHFTGSKDHNIKMRQLAKQSNEKISEYGVEQEDGTVRHFESEKTFFEHFKIPFLPPEVRRDGTEIERVTKDTKFLELSDIRGDLHMHTTWSDGAYAIPEMIEACIAKGYEYMVITDHGKFLRVANGLDEKRLLEQQAEIKKIAAKYPEIDVYSGVEMDILADGSLDFDDETLKQLDFVIASIHSSFQQSEEEIMKRLKTACENPYVRLIAHPTGRIVVKRKPYHVNMKELIQLAKSTGTALELNANPQRLDLNREHLEMAHAAGVPIAINTDAHDTKHLDFMSIGVRAATKAWLGKSAILNTKTAAEFKQFLQNKEGHHHHHH	soluble
MEFIMKTRMFEEEGWIRKKCKVCGKPFWTLDPDRETCGDPPCDEYQFIGKPGIPRKYTLDEMREKFLRFFEKHEIYPHGRVKRYPVLPRWRDDVLLVGASIMDFQPWVISGEADPPANPLVISQPSIRFTDIDNVGITGRHFTIFEMMAHHAFNYPGKPIYWMDETVELAFEFFTKELKMKPEDITFKENPWAGGGNAGPAFEVLYRGLEVATLVFMQYKKAPENAPQDQVVVIKGEKYIPMETKVVDTGYGLERLVWMSQGTPTAYDAVLGYVVEPLKKMAGIEKIDEKILMENSRLAGMFDIEDLGDLRYLREQVAKRVGITVEELEKAIRPYELIYAIADHTKALTFMLADGVVPSNVKAGYLARLLIRKSIRHLRELGLEVPLSEIVALHIKELHKTFPEFKEMEDIILEMIELEEKKYAETLRRGSDLVRREIAKLKKKGIKEIPVEKLVTFYESHGLTPEIVKEIAEKEGVKVNIPDNFYSMVAKEAERTKEEKGEELVDFELLKDLPDTRRLYYEDPFMKEFDAKVLRVIKDWVILDATAFYPEGGGQPYDTGVLIVNGREVKVTNVQKVGKVIIHKVEDPGAFKEGMIVHGKIDWKRRIQHMRHHTGTHVLMGALVRVLGRHVWQAGSQLTTDWARLDISHYKRISEEELKEIEMLANRIVMEDRKVTWEWLPRTTAEQKYGFRLYQGGVVPGREIRVVKIEDWDVQACGGTHLPSTGLVGPIKILRTERIQDGVERIIFACGE	soluble
MGFIMEFAENLVLRLMENPEERDRKAREHIYEMHERCKKIKEMWALPIRPYGFWTFERHNAQLRWDPQISQVAGRRDPYDDLLEDNYTPPSSSSSSSD	soluble
MTNYKIDFSKGLVPAILQDNQTKQVLMLGYMNQEAFDKTIEDGVVCFYSRSKQRLWTKGETSGHTQRVKDIHVDCDNDTILIDVIPNGPTCHTGSQSCFNTEVPFSVQTLAQTVQDSAQSNNEKSYTKYLLTEGIEKITKKYGEEAFEVVIEAIKGDKKAFVSEVADELYHLFVLMHALGVDFSEIEAELARRHHKRNNFKGERQNIEQWLEHHHHHH	not soluble
MGSSHHHHHHSSGLVPRGSHMSLNILGYDVGGTKISTVVGNDSGEILSNVRMPTVKHLGKKRLIEEMITMGDAALKKAHVEKPDLIGIIFAGPVDRNRGVVIASPNIFGLSNFNIVEPIRDYYRTDTFLENDAQAAAIAERLFGSGRNVDNFVYMTLSTGIGGGIFINGKLYRGAHGMAGEIGHNVIMVNGPTCGCGRRGCLEALAGGKAIARRVIENLRAVRDSDFFSKLRPNEITAEKVFEGKKQGDMFSQLILEETIYYLAVGLVNIINTLDPELVIIGGGISKAGKDLFDPLNDAVKEEFKSMYRPFKIVPGLENGSDLAAISVPLYTEMELHGEGEKQY	soluble
GSMEQFELFSIDKFKCNSEAKYYLNIIEGEWHPQDLNDSPLKFILSTSDDSDYICKYINTEHKQLTLYNKNNSSIVIEIFIPNDNKILLTIMNTEALGTSPRMTFIKHK	soluble
MGSDKIHHHHHHLTEFTLMVAPNGARRGKADHPALPMTAPELAETALACHRLGAQALHLHVRDAEGVHSLDAGRYREAMSLVSEAVPTMGIQITTESAGLFDVGAQLACLEALRPAAASVSVREMARDKSLAARAYALCSEAGTQVQHILYTPECVEQLEAWYADGTVPDEMRDVILVLGQYATGQPARPAMLPPFLALIAPLDLRWSLCAFGPEEHACLLAAVEAGGQVRIGFENSLGPMGGPAWADNAASVEAFLNLTVARGHTLDPHQNMPGANLRELT	not soluble
MTTDYDFWLFDLDGTLVDIEPAYPRKVMGAVGDRLGVEFTDRERDALWYGFGGTRSRTLAERNVDQQEFWRLFHEEEDPIARAEATYLYDDAEQFLATLDTPVGLVTHCQQYLTEPVLDHLDITDWFETVVCCDDDIGWKPDPKPVELAMREMDVWYNGHHGVLAGDNPSDIGAAWNAGLDGVHVGRRSPTETGRCVRGDRRVASLLDLSSSQGR	not soluble
MIGFIGSVFSPWYRWSGRKEPQNHCCLNVATYGPGGRFTMTDRGRAALRQSPDTLTVGPSRMHWTGTQLIVEVNEISSPPLVSPVKGRIVLTPTGITDVEVTLKDDGSHIWRPFAPTARIEVDLTQGHRWHGHGYFDANFGTAALEADFRFWTWGRYPVADGAACFYDATRRDGSRLELGLHVAADGRARLIQPPPEARFARSRWLVERHTPADPGTRPRQVMSMLDAPFYSRAMVETTVFGQKTVGVHEALDLRRFRSPLLMPMLAVRVPRRPGWSF	not soluble
TETTSFLITKFSPDQQNLIFQGDGYTTKEKLTLTKAVKNTVGRALYSSPIHIWDRETGNVANFVTSFTFVINAPNSYNVADGFTFFIAPVDTKPQTGGGYLGVFNSAEYDKTTQTVAVEFDTFYNAAWDPSNRDRHIGIDVNSIKSVNTKSWKLQNGEEANVVIAFNAATNVLTVSLTYPN	soluble
MIAARQVSKPIADAVLRYGKDHPVFRNKLLLPIGRGLVRFTSRLRMKRLGLGEPISQAPISESAALEQASDFVQQLVLFSYSVGVFAGYYFYTKMTTPESLKIEDYEEFKQQQERAIKELRLQVESLEQRLAAQQKRNFFSQLGFSKENGDESPPKPSQQAPPPEKPSEEKKPATESLKQRFQRISSLPIDAAASLILDDEEYLVVRRGSSVGIELSVNFAARGDRLRYRIPSPKLRESCAQMALKEAACHVIGAKDRSRFRYVNS	not soluble
MSELNKEMTLLPPPELVQYVGGDFKKVGKEFLKHFIQIGALKSNEKVLDVGCGVGRMAVPLMNYLNDDGAYYGFDLFKDGITWCQNNISTMRNNFHFEHVDIYNQFYNPEGKEDASQYRFPYEDGTFDFIFLTSVFTHLLPKELEHYVSEIVRVLKKDGRCFITFFLINPESSYYLNAGQSTLGFYHRIENCYVVNKDIPNFAVAYPETDICNLLNKYGLEIINKPHYGLWCGRHEYTSYQDIVLTKKSFLEHHHHHH	soluble
MGSDKIHHHHHHCDDFLDSFPQDTVTNENFWKSKEDADKVLVDIYASLLPKDAIFFDEAMSDNAYLVWDWWGGAQQVANGSYTTSGEIPTNRWNGSYEVIRKCWFLLEGIEKIEDISEQDKNKIIGETYFMLAYNYYVLTSYFGDVPLVTKTLAIPESKQLVRTPKAEVVDYAINKLKEAAVMLEGLSQEKGRVTADACRFLIARMYLYNGDYSNVLETVKLLEGKYQLYREGDTPYEDLFSGVAENSCEVILSVVCDKRVGEIYTSHGGNGIMLLKGITGEDPYRGVTPSGSLVDAYPMADGRLIHEAGSSYDPKKPYEGRDPRFYQSIVYPTGQIKYLDVETGTVKERLYDPEDPTTVPEHQYNYSQPSATGYMWNKYIDYSVYAMNSVWDCTNDIIVFRYADVLLMKAEALLQTKGESAKEEVCNLIDQLRDRCSCGRVHRENYNSKDELMELLKNERRIELANEGLRYMDLIRWKDAEKNTIVTGVGLTGQMYGAYMRKDGVGKDDKTVDVDNTPRRYIETRYFNASKGYLFPIPQKERDLNPNLTQNPNW	not soluble
MSLQPVPDAGPWGDYLCDSPWALINSSIYAMKEIEPEPDFILWTGDDTPHVPDEKLGEAAVLEIVERLTKLIREVFPDTKVYAALGNHDFHPKNQFPAGSNNIYNQIAELWKPWLSNESIALFKKGAFYCEKLPGPSGAGRIVVLNTNLYYTSNALTADMADPGQQFQWLEDVLTDASKAGDMVYIVGHVPPGFFEKTQNKAWFREGFNEKYLKVVRKHHRVIAGQFFGHHHTDSFRMLYDDAGVPISAMFITPGVTPWKTTLPGVVNGANNPAIRVFEYDRATLSLKEGHHHHHH	not soluble
